Experimental data published in US20100278752A1.

Key:
Assay in all cases: cell-based or functional assay
[1] = biological target: Cathepsin B (Homo sapiens (Human)) (UniProt P07858)
[2] = biological target: Cathepsin H (Homo sapiens (Human)) (UniProt P09668)
[3] = biological target: Cathepsin X/Z/P (Homo sapiens (Human)) (UniProt Q9UBR2)
Sequence of Cathepsin X/Z/P (Homo sapiens (Human)) (Q9UBR2 62-303 limits assumed, form in doubt): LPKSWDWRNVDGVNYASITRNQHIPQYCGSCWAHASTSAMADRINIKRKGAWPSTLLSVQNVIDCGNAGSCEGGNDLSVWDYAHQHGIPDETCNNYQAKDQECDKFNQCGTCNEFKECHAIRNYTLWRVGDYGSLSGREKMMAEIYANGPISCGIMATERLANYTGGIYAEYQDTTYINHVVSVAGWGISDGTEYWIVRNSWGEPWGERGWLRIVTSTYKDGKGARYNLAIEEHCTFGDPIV

Sequence of Sialostatin L (Q8MVB6 20-133, tags or fused parts left off): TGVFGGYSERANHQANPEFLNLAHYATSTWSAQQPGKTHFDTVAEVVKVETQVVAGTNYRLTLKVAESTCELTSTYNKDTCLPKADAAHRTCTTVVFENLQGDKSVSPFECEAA
Sequence of Cathepsin H (Homo sapiens (Human)) (P09668 116-335 limits assumed, form in doubt): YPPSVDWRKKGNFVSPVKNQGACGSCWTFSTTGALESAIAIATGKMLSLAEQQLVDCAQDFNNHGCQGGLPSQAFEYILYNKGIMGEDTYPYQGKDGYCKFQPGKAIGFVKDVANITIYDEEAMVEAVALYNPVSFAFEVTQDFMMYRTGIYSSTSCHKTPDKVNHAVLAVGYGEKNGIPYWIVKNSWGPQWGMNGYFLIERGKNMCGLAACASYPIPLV

| Substance | IC50 (inhibitor concentration at which 50% inhibition of enzymatic activity is achieved) [1] [µM] | IC50 (inhibitor concentration at which 50% inhibition of enzymatic activity is achieved) [2] [µM] | IC50 (inhibitor concentration at which 50% inhibition of enzymatic activity is achieved); 16 nM enzyme [3] [µM] |
| --- | --- | --- | --- |
| Sialostatin L2 (from UniProt B7PKZ1 19-132) | > 10 | > 10 | > 10 |
| Sialostatin L (from UniProt Q8MVB6 20-133) | > 10 | > 10 | – |
